{"source": "patent US20090186027A1", "about": "(RAMOT AT TEL AVIV UNIVERSITY, published 2009)", "target": "T1, β-amyloid peptide 1-40 (UniProt P05067 672-711)", "T1 construct": "domain: beta amyloid peptide 1-40; Residues 1-40 are counted on Aβ, not on the APP entry; Coated after overnight incubation at 37 C (ELISA) or pre-aggregated for a week (ThT assay); also called Aβp 1-40; AβP 1-40", "test": "ELISA, constant 10 µM Aβ 1-40 coated, 3.125-25 µM antibody; reference 37L", "method": "Wells were washed and blocked with 3% milk powder in PBS for 1 hr at 37° C. […] The rest of the ELISA assay was performed as described above.", "data": [{"binder": "37H (single domain antibody, heavy chain variable domain of scFv RCK37) (other, also called 37H nanobody; nanobody 37H; not shown: C-terminal His tag from the pET28/pET21 vector) VH: MAHVQFVQSGGDLVKPGGSLKLSCAASGFTFSSYGMSWVRQTPDKRLEWVATISSGGSYTYYPDSVKGRFTISRDNAKNTLYLQMSSLKSEDTAMYYCARHNYGSSYPYAMDYWGQGTPVTVSA", "values": [{"measurement": "fold stronger binding than 37L", "result": 5, "unit": "times"}]}]}
